Assay results taken from patent publication US20230407373A1 (priority 2020, published 2023).
Read-outs that look alike come from different tables or passages of the source.

Experiments:
Format in all cases: binding
[1] = test system: SARS-CoV-2 gRNA; settings: for target (unweighted spectral count of the protein in the RNP capture): LC-MS/MS, Probe I sample (first 199 lines of Table 2)
[2] = test system: gRNA of HCoV-OC43
[3] = test system: HCoV-OC43 gRNA and sgRNA; settings: for target (unweighted spectral count, OC43 Probe II capture) / target (unweighted spectral count): tested against no-probe control; for target (unweighted spectral count, OC43 Probe II capture): FDR<10%; for target (unweighted spectral count): OC43 Probe II, 24 hpi (type n_24_v), infected cells

B1: POLDIP3: host protein, UniProt Q9BY77 (protein, UniProt Q9BY77 2-421, looked up)
Polymerase delta-interacting …: ADISLDELIRKRGAAAKGRLNARPGVGGVRSRVGIQQGLLSQSTRTATFQQRFDARQKIGLSDARLKLGVKDAREKLLQKDARFRIKGKVQDAREMLNSRKQQTTVPQKPRQVADAREKISLKRSSPAAFINPPIGTVTPALKLTKTIQVPQQKAMAPLHPHPAGMRINVVNNHQAKQNLYDLDEDDDGIASVPTKQMKFAASGGFLHHMAGLSSSKLSMSKALPLTKVVQNDAYTAPALPSSIRTKALTNMSRTLVNKEEPPKELPAAEPVLSPLEGTKMTVNNLHPRVTEEDIVELFCVCGALKRARLVHPGVAEVVFVKKDDAITAYKKYNNRCLDGQPMKCNLHMNGNVITSDQPILLRLSDSPSMKKESELPRRVNSASSSNPPAEVDPDTILKALFKSSGASVTTQPTEFKIKL
- target (unweighted spectral count of the protein in the RNP capture) ([1]; […]): 5
- target (spectral count) ([2]; type g_36_m, HCoV-OC43-infected HCT-8 cells, 36 hpi, Probe I): 7
- background (spectral count) ([2]; type g_36_m, uninfected-probe control, 36 hpi, Probe I): 1
- target (spectral count, OC43 Probe I RNP capture) ([2]; type n_48_v: 48 hours post-infection, infected cells, OC43 Probe I, unweighted spectral count): 7
- background (spectral count, no-probe control) ([2]; type n_48_v: 48 hours post-infection, no-probe control on infected cells): 1

B2: RPUSD3 (protein, UniProt Q6P087 26-351, looked up)
Mitochondrial mRNA …: LGVRPVPEDAGFGTEARHQRQPRGSCQRSGPLGDQPFAGLLPKNLSREELVDALRAAVVDRKGPLVTLNKPQGLPVTGKPGELTLFSVLPELSQSLGLREQELQVVRASGKESSGLVLLSSCPQTASRLQKYFTHARRAQRPTATYCAVTDGIPAASEGKIQAALKLEHIDGVNLTVPVKAPSRKDILEGVKKTLSHFRVVATGSGCALVQLQPLTVFSSQLQVHMVLQLCPVLGDHMYSARVGTVLGQRFLLPAENNKPQRQVLDEALLRRLHLTPSQAAQLPLHLHLHRLLLPGTRARDTPVELLAPLPPYFSRTLQCLGLRLQ
- target (unweighted spectral count of the protein in the RNP capture) ([1]; […]): 7

B3: CKAP4: host protein, UniProt Q07065 (protein, UniProt Q07065 1-602, looked up)
Cytoskeleton-associated …: MPSAKQRGSKGGHGAASPSEKGAHPSGGADDVAKKPPPAPQQPPPPPAPHPQQHPQQHPQNQAHGKGGHRGGGGGGGKSSSSSSASAAAAAAAASSSASCSRRLGRALNFLFYLALVAAAAFSGWCVHHVLEEVQQVRRSHQDFSRQREELGQGLQGVEQKVQSLQATFGTFESILRSSQHKQDLTEKAVKQGESEVSRISEVLQKLQNEILKDLSDGIHVVKDARERDFTSLENTVEERLTELTKSINDNIAIFTEVQKRSQKEINDMKAKVASLEESEGNKQDLKALKEAVKEIQTSAKSREWDMEALRSTLQTMESDIYTEVRELVSLKQEQQAFKEAADTERLALQALTEKLLRSEESVSRLPEEIRRLEEELRQLKSDSHGPKEDGGFRHSEAFEALQQKSQGLDSRLQHVEDGVLSMQVASARQTESLESLLSKSQEHEQRLAALQGRLEGLGSSEADQDGLASTVRSLGETQLVLYGDVEELKRSVGELPSTVESLQKVQEQVHTLLSQDQAQAARLPPQDFLDRLSSLDNLKASVSQVEADLKMLRTAVDSLVAYSVKIETNENNLESAKGLLDDLRNDLDRLFVKVEKIHEKV
- target (unweighted spectral count in RNP capture) ([1]; Probe I capture, […], LC-MS/MS LFQ): 5
- background (unweighted spectral count in control) ([1]; no-probe control pull-down, used as background for Probe I): 1
- target (unweighted spectral count, OC43 Probe II capture) ([3]; 36 hpi, type n_36_v): 12
- target (unweighted spectral count) [3]: 8
- target (spectral count) ([3]; type s_36_m, HCoV-OC43-infected HCT-8 cells, 36 hpi, Probe II): 12
- background (spectral count) ([3]; type s_36_m, uninfected-probe control, 36 hpi, Probe II): 1

B4: FAM1204 (protein, UniProt Q9NZB2 1-1118, looked up)
Constitutive coactivator of …: MGVQGFQDYIEKHCPSAVVPVELQKLARGSLVGGGRQRPPQTPLRLLVDADNCLHRLYGGFYTDWVSGGQWNHMLGYLAALAKACFGGNIELFVFFNGALEKARLHEWVKRQGNERQTAQQIVSHVQNKGTPPPKVWFLPPVCMAHCIRLALIRFHVKVAQSIEDHHQEVIGFCRENGFHGLVAYDSDYALCNIPYYFSAHALKLSRNGKSLTTSQYLMHEVAKQLDLNPNRFPIFAALLGNHILPDEDLASFHWSLLGPEHPLASLKVRAHQLVLPPCDVVIKAVADYVRNIQDTSDLDAIAKDVFQHSQSRTDDKVIRFKRAIGYYSATSKPMSFHPPHYLAARPGPFGMPGMVPPHVPPQMLNIPQTSLQAKPVAPQVPSPGGAPGQGPYPYSLSEPAPLTLDTSGKNLTEQNSYSNIPHEGKHTPLYERSSPINPAQSGSPNHVDSAYFPGSSTSSSSDNDEGSGGATNHISGNKIGWEKTGSHSEPQARGDPGDQTKAEGSSTASSGSQLAEGKGSQMGTVQPIPCLLSMPTRNHMDITTPPLPPVAPEVLRVAEHRHKKGLMYPYIFHVLTKGEIKIAVSIEDEANKDLPPAALLYRPVRQYVYGVLFSLAESRKKTERLAFRKNRLPPEFSPVIIKEWAAYKGKSPQTPELVEALAFREWTCPNLKRLWLGKAVEDKNRRMRAFLACMRSDTPAMLNPANVPTHLMVLCCVLRYMVQWPGARILRRQELDAFLAQALSPKLYEPDQLQELKIENLDPRGIQLSALFMSGVDMALFANDACGQPIPWEHCCPWMYFDGKLFQSKLLKASREKTPLIDLCDGQADQAAKVEKMRQSVLEGLSFSRQSHTLPFPPPPALPFYPASAYPRHFGPVPPSQGRGRGFAGVCGFGGPYGETVATGPYRAFRVAAASGHCGAFSGSDSSRTSKSQGGVQPIPSQGGKLEIAGTVVGHWAGSRRGRGGRGPFPLQVVSVGGPARGRPRGVISTPVIRTFGRGGRYYGRGYKNQAAIQGRPPYAASAEEVAKELKSKSGESKSSAMSSDGSLAENGVMAEEKPAPQMNGSTGDARAPSHSESALNNDSKTCNTNPHLNALSTDSACRREAALEAAVLNKEE
- target (unweighted spectral count of the protein in the RNP capture) ([1]; […]): 37

B5: DDX3X (protein, UniProt O00571 2-662, looked up)
ATP-dependent RNA helicase …: SHVAVENALGLDQQFAGLDLNSSDNQSGGSTASKGRYIPPHLRNREATKGFYDKDSSGWSSSKDKDAYSSFGSRSDSRGKSSFFSDRGSGSRGRFDDRGRSDYDGIGSRGDRSGFGKFERGGNSRWCDKSDEDDWSKPLPPSERLEQELFSGGNTGINFEKYDDIPVEATGNNCPPHIESFSDVEMGEIIMGNIELTRYTRPTPVQKHAIPIIKEKRDLMACAQTGSGKTAAFLLPILSQIYSDGPGEALRAMKENGRYGRRKQYPISLVLAPTRELAVQIYEEARKFSYRSRVRPCVVYGGADIGQQIRDLERGCHLLVATPGRLVDMMERGKIGLDFCKYLVLDEADRMLDMGFEPQIRRIVEQDTMPPKGVRHTMMFSATFPKEIQMLARDFLDEYIFLAVGRVGSTSENITQKVVWVEESDKRSFLLDLLNATGKDSLTLVFVETKKGADSLEDFLYHEGYACTSIHGDRSQRDREEALHQFRSGKSPILVATAVAARGLDISNVKHVINFDLPSDIEEYVHRIGRTGRVGNLGLATSFFNERNINITKDLLDLLVEAKQEVPSWLENMAYEHHYKGSSRGRSKSSRFSGGFGARDYRQSSGASSSSFSSSRASSSRSGGGGHGSSRGFGGGGYGGFYNSDGYGGNYNSQGVDWWGN
- target (unweighted spectral count of the protein in the RNP capture) ([1]; […]): 17
- target (unweighted spectral count, OC43 Probe II capture) ([3]; 36 hpi, type n_36_v): 7
- target (unweighted spectral count) [3]: 7
- target (unweighted spectral count, OC43 Probe II) ([3]; type n_48_v, 48 hpi, OC43 Probe II capture on infected cells): 11
- background (unweighted spectral count, no-probe control) ([3]; type n_48_v, 48 hpi, no-probe control on infected cells): 2

B6: SRSF9 (protein, UniProt Q13242 1-221, looked up)
Serine/arginine-rich splicing …: MSGWADERGGEGDGRIYVGNLPTDVREKDLEDLFYKYGRIREIELKNRHGLVPFAFVRFEDPRDAEDAIYGRNGYDYGQCRLRVEFPRTYGGRGGWPRGGRNGPPTRRSDFRVLVSGLPPSGSWQDLKDHMREAGDVCYADVQKDGVGMVEYLRKEDMEYALRKLDDTKFRSHEGETSYIRVYPERSTSYGYSRSRSGSRGRDSPYQSRGSPHYFSPFRPY
- target (unweighted spectral count of the protein in the RNP capture) ([1]; […]): 6

B7: MARS2 (protein, UniProt Q96GW9 30-593, looked up)
Methionine--tRNA ligase, …: SSGSLSAGDDACDVRAYFTTPIFYVNAAPHIGHLYSALLADALCRHRRLRGPSTAATRFSTGTDEHGLKIQQAAATAGLAPTELCDRVSEQFQQLFQEAGISCTDFIRTTEARHRVAVQHFWGVLKSRGLLYKGVYEGWYCASDECFLPEAKVTQQPGPSGDSFPVSLESGHPVSWTKEENYIFRLSQFRKPLQRWLRGNPQAITPEPFHHVVLQWLDEELPDLSVSRRSSHLHWGIPVPGDDSQTIYVWLDALVNYLTVIGYPNAEFKSWWPATSHIIGKDILKFHAIYWPAFLLGAGMSPPQRICVHSHWTVCGQKMSKSLGNVVDPRTCLNRYTVDGFRYFLLRQGVPNWDCDYYDEKVVKLLNSELADALGGLLNRCTAKRINPSETYPAFCTTCFPSEPGLVGPSVRAQAEDYALVSAVATLPKQVADHYDNFRIYKALEAVSSCVRQTNGFVQRHAPWKLNWESPVDAPWLGTVLHVALECLRVFGTLLQPVTPSLADKLLSRLGVSASERSLGELYFLPRFYGHPCPFEGRRLGPETGLLFPRLDQSRTWLVKAHRT
- target (unweighted spectral count of the protein in the RNP capture) ([1]; […]): 6

B8: CON_P35908 (protein, UniProt P35908 1-639, looked up)
Keratin, type II cytoskeletal …: MSCQISCKSRGRGGGGGGFRGFSSGSAVVSGGSRRSTSSFSCLSRHGGGGGGFGGGGFGSRSLVGLGGTKSISISVAGGGGGFGAAGGFGGRGGGFGGGSSFGGGSGFSGGGFGGGGFGGGRFGGFGGPGGVGGLGGPGGFGPGGYPGGIHEVSVNQSLLQPLNVKVDPEIQNVKAQEREQIKTLNNKFASFIDKVRFLEQQNQVLQTKWELLQQMNVGTRPINLEPIFQGYIDSLKRYLDGLTAERTSQNSELNNMQDLVEDYKKKYEDEINKRTAAENDFVTLKKDVDNAYMIKVELQSKVDLLNQEIEFLKVLYDAEISQIHQSVTDTNVILSMDNSRNLDLDSIIAEVKAQYEEIAQRSKEEAEALYHSKYEELQVTVGRHGDSLKEIKIEISELNRVIQRLQGEIAHVKKQCKNVQDAIADAEQRGEHALKDARNKLNDLEEALQQAKEDLARLLRDYQELMNVKLALDVEIATYRKLLEGEECRMSGDLSSNVTVSVTSSTISSNVASKAAFGGSGGRGSSSGGGYSSGSSSYGSGGRQSGSRGGSGGGGSISGGGYGSGGGSGGRYGSGGGSKGGSISGGGYGSGGGKHSSGGGSRGGSSSGGGYGSGGGGSSSVKGSSGEAFGSSVTFSFR
- target (unweighted spectral count of the protein in the RNP capture) ([1]; […]): 6
- target (unweighted spectral count, OC43 Probe II capture) ([3]; 24 hpi, type n_24_v): 4

B9: GRSF1 (protein, UniProt Q12849 118-480, looked up)
G-rich sequence factor 1: SQESKTTYLEDLPPPPEYELAPSKLEEEVDDVFLIRAQGLPWSCTMEDVLNFFSDCRIRNGENGIHFLLNRDGKRRGDALIEMESEQDVQKALEKHRMYMGQRYVEVYEINNEDVDALMKSLQVKSSPVVNDGVVRLRGLPYSCNEKDIVDFFAGLNIVDITFVMDYRGRRKTGEAYVQFEEPEMANQALLKHREEIGNRYIEIFPSRRNEVRTHVGSYKGKKIASFPTAKYITEPEMVFEEHEVNEDIQPMTAFESEKEIELPKEVPEKLPEAADFGTTSSLHFVHMRGLPFQANAQDIINFFAPLKPVRITMEYSSSGKATGEADVHFETHEDAVAAMLKDRSHVHHRYIELFLNSCPKGK
- target (unweighted spectral count of the protein in the RNP capture) ([1]; […]): 14
- target (unweighted spectral count, OC43 Probe II capture) ([3]; 24 hpi, type n_24_v): 4
